Reference: PMC9798253 (Protein Science : A Publication of the Protein Society, 2023)

System: GST-TRD (TRD domain of MECP2)
Assay: GST-pulldown of MBP-ADD
Type: binding
Settings: 1 μg each protein; 25 mM Tris/HCl pH 8, 200 mM KCl; 1 h, 6°C; SDS-PAGE

B1: D529A/D530A/D531A triple mutation: D529A/D530A/D531A triple mutant of the ADD domain (MBP‐ADD in pulldown, mVenus‐ADD in cells) (protein)
chain: RERLVYEVRQKCRNIEDICISCGSLNVTLEHPLFVGGMCQNCKNCFLECAYQYAAAGYQSYCTICCGGREVLMCGNNNCCRCFCVECVDLLVGPGAAQAAIKEDPWNCYMCGHKGTYGLLRRREDWPSRLQMFFANNHD
modifications: left off: MBP, N-terminal, kept
  pulldown of MBP-ADD by GST-TRD: reduced
